Test results from patent publication US7064106B2, “Gene and use thereof” (Takeda Chemical Industries, Ltd., priority 1999, dated 2006).
Where no end group is shown, it is not given here.

Legend:
[1] = target: T1, binding of IRAP-His to GST-MD364N (UniProt P97629+Q9Y613); test: Binding inhibition test / screening of compounds that inhibit the binding of IRAP to human MD36
T1 construct: to construct plasmid pET21-IRAP (1–109); made in house; host or cells: E. coli (BL21 for GST-MD36N4)
T1 sequence (Q9Y613 951-1164): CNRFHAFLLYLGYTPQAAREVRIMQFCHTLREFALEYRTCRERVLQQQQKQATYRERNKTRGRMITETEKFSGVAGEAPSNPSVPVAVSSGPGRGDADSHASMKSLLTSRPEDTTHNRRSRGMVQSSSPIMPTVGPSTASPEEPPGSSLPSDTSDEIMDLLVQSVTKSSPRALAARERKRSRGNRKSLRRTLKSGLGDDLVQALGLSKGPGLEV
T1 sequence (P97629 1-109): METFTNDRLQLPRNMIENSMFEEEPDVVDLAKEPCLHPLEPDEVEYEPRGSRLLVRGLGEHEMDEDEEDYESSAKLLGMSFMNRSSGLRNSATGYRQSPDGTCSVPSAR
Source text: The C terminal part (partial peptide encoded by the partial base sequence of 2995–3674 from the 5′ end in SEQ ID NO:2) of SEQ ID NO:1 (full-length cDNA of MD36) was used as human MD36. This DNA fragment was inserted into pGEX expression vector (Amersham Pharmacia) to construct expression plasmid pGEX-MD36N4 capable of expressing the human MD36 partial protein in the form fused to GST (glutathione S-transferase) protein (GST-MD36N4 protein) under control of tac promoter. However, the protease recognition site in these junctions was removed by applying PCR. Using pGEX-MD36N4, E. coli BL21 was transformed and the transformants were cultured in LB medium in a conventional manner while inducing expression by IPTG. After culture, the cells collected were disrupted by sonication followed by centrifugation of the cell homogenate. As a result, most of the GST-MD36N4 protein were present in the insoluble fraction. […]
Protein-protein binding test was carried out by the procedure shown below. […] After the wells were again rinsed 3 times with TBS-T, the IRAP-His protein remained in the wells was quantitatively assayed using anti-Penta-His antibody (Qiagen, Inc.). […] IRAP-His (1.0 μg/ml) or anti-Penta-His antibody (diluted to 2000 fold) and both were added to the GST-MD364N-coated or uncoated wells, and after washing with TBS-T, the amount of His-Tag remained in the wells was quantified. […]

[2] = target: T2, profilin II (Homo sapiens, UniProt P35080); test: Yeast two-hybrid HIS3 growth test, MD36 and profilin family; type: cell-based; conditions: S. cerevisiae Y190; 40 mM 3-amino-1,2,4-triazole
T2 construct: expressed in transfected cells; host or cells: Saccharomyces cerevisiae Y190
T2 sequence (P35080 1-140 isoform P35080-2): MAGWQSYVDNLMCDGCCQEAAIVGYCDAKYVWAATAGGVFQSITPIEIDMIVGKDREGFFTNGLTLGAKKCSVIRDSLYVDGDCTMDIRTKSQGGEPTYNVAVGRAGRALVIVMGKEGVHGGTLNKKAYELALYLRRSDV
Source text: (§1) The protein-protein interaction between MD36 and the profilin family was detected by the yeast two-hybrid system. Based on pGBT9 (CLONTECH), expression plasmids were constructed to express the coding regions of profiling I (Evangelista et al., Science, 276, 118–122, 1997; Imamura et al., EMBO J., 16, 2745–2755, 1997; Tanaka, Biochem. Biophys. Res. Commun., 267, 479–481, 2000), profilin II (Schluter et al., Biohim. Biophys. Acta, 1359, 97–109, 1997), and profiling IIL in the form fused to yeast GAL4-DNA-binding domain protein under control of yeast ADH1 promoter. These plasmids were named pG-PFNI, pG-PFNII and pG-PFNIII, respectively (yeast selection marker was TRP1). On the other hand, expression plasmids that express the full-length sequence (SEQ ID NO:1) of MD36, which is IRAP-BP protein, or the coding region from this N-terminus to the sequence (SEQ ID NO:33) including the proline-rich domain in the form fused to yeast […] activated domain protein under control of yeast ADH1 promoter was constructed based on pACT2 (CLONTECH), and named pACT-MD36 and pACT-MD36NT, respectively (yeast selection marker was LEU2). pG-PFNI, pG-PFNII, pG-PFNIII or, pGBT9 for control was co-transfected to yeast Saccharomyces cerevisiae Y190 together with pACT-MD36 or pACT-MD36NT, and yeast strains bearing plasmids from the two were selected on SD medium free of tryptophan and leucine. S. cerevisiae Y190 is originally a histidine auxotrophic strain but when the introduced proteins on the plasmids show the interactions, reporter gene HIS3 is expressed and the strain becomes capable of growing on a histidine-free plate. The yeast strain acquired was spread on tryptophan, leucine and histidine-free SD medium supplemented with 40 mM 3-amino-1,2,4-triazole.

[3] = tested on: profilin I; test: as above; type: cell-based; conditions: S. cerevisiae Y190; 40 mM 3-amino-1,2,4-triazole
Source text: as §1

[4] = target: T3, profilin IIL (Homo sapiens, UniProt P35080); test: as above; type: cell-based; conditions: S. cerevisiae Y190; 40 mM 3-amino-1,2,4-triazole
T3 construct: expressed in transfected cells; host or cells: Saccharomyces cerevisiae Y190
T3 sequence (P35080 1-140): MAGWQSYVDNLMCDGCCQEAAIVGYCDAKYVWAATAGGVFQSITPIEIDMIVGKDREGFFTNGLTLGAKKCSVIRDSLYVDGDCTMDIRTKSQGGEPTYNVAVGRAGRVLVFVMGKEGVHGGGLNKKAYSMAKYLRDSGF
Experimental: Using as a template human skeletal muscle-derived cDNA and as an enzyme Pfu polymerase (STRATAGENE), the reaction was carried out at 95° C. for 30 seconds, at 65° C. for 45 seconds and at 72° C. for 60 seconds, for 35 cycles. As a result of PCR, the DNA fragment of 745 bp was found, in addition to the DNA fragment of 423 bp or profilin II, and named profilin IIL. The base sequence for cDNA of profilin IIL is shown by SEQ ID NO:29, and the amino acid sequence of profilin II is shown by SEQ ID NO:28.
The protein-protein interaction between MD36 and the profilin family was detected by the yeast two-hybrid system. Based on pGBT9 (CLONTECH), expression plasmids were constructed to express the coding regions of profiling I (Evangelista et al., Science, 276, 118–122, 1997; Imamura et al., EMBO J., 16, 2745–2755, 1997; Tanaka, Biochem. Biophys. Res. Commun., 267, 479–481, 2000), profilin II (Schluter et al., Biohim. Biophys. Acta, 1359, 97–109, 1997), and profiling IIL in the form fused to yeast GAL4-DNA-binding domain protein under control of yeast ADH1 promoter. These plasmids were named pG-PFNI, pG-PFNII and pG-PFNIII, respectively (yeast selection marker was TRP1). […]

Molecule: IRAP (55–82): chemically synthesized biotinylated peptide, amino acids 55–82 from the N terminus of SEQ ID NO:11 (IRAP) (VRGLGEHEMDEDEEDYESSAKLLGMSFM; also: biotinylated; listed as Homo sapiens) [reference compound]
- inhibition of the binding of IRAP-His to GST-MD364N ([1]; biotinylated IRAP (55–82) peptide added, several amounts (μg/well)): inhibited

Molecule: O=C(O)c1cc(O)c2c(c1)[C@@H]([C@H]1c3cc(C(=O)O)cc(O)c3C(=O)c3c(OC4OC(CO)C(O)C(O)C4O)cccc31)c1cccc(OC3OC(CO)C(O)C(O)C3O)c1C2=O (some centres unmarked) [Compound 1]
- binding inhibition (reduced amount of His-Tag remained on the plate) ([1]; library compound in DMSO, final concentration 1 μM): exhibited binding inhibition

B1: MD36NT: MD36 from the N terminus to the sequence including the proline-rich domain (SEQ ID NO:33) (protein, listed as Homo sapiens)
chain: MAGGEDRGDGEPVSVVTVRVQYLEDTDPFACANFPEPRRAPTCSLDGALPLGAQIPAVHRLLGAPLKLEDCALQVSPSGYYLDTELSLEEQREMLEGFYEEISKGRKPTLILRTQLSVRVNAILEKLYSSSGPELRRSLFSLKQIFQEDKDLVPEFVHSEGLSCLIRVGAAADHNYQSYILRALGQLMLFVDGMLGVVAHSDTIQWLYTLCASLSRLVVKTALKLLLVFVEYSENNAPLFIRAVNSVASTTGAPPWANLVSILEEKNGADPELLVYTVTLINKTLAALPDQDSFYDVTDALEQQGMEALVQRHLGTAGTDVDLRTQLVLYENALKLEDGDIEEAPGAGGRRERRKPSSEEGKRSRRSLEGGGCPARAPEPGPTGPASPVGPTSSTGPALLTGPASSPVGPPSGLQASVNLFPTISVAPSADTSSERSIYKLHQTASVWAPESPPVPQSPPGQARLEARFLENVAAAETEKQVALAQGRAETLAGAMPNEAGGHPDARQLWDSPETAPAARTPQSPAPCVLLRAQRSLAPEPKEPLIPASPKAEPIWELPTRAPRLSIGDLDFSDLGEDEDQDMLNVESVEAGKDIPAPSPPLPLLSGVPPPPPLPPPPPIKGPFPPPPPLPLAAPLPHSVPDSSALPTKRKTVKLFWRELKLAGGH
- growth of yeast on tryptophan, leucine and histidine-free SD medium [2]: did not grow
- growth of yeast on tryptophan, leucine and histidine-free SD medium [3]: did not grow
- growth of yeast on tryptophan, leucine and histidine-free SD medium [4]: Growth of the yeast was noted
